One molecule from article PMC8713982, “Structure and RNA template requirements of Arabidopsis RNA-DEPENDENT RNA POLYMERASE 2” can be followed below.

The series concerns the target T1, TF-RDR2-RRM (Arabidopsis thaliana, UniProt O82504 1-100).
T1 sequence: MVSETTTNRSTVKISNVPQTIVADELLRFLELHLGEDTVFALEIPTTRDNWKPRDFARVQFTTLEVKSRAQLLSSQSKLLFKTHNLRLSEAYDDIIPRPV
As to the kind of experiment: EMSA; protein 1, 3, 9 uM; RNA 2 uM; 2 mM Mg2+; 25 mM Hepes-KOH pH 7.6, 50 mM NaCl, 2 mM MgCl2, RNase inhibitor, 30 min room temperature; 6% native PAGE. The settings on record: protein: recombinant; tags: N-terminal trigger factor (TF) fusion, pCold-TF; label: 5' Alexa647; single strand. (Mobility shift assays separate free from complexed probe on a gel.)

On to UCCGUCCGUCUGCUGUGGGUCUCCUUUCUCCUUCUUC (ssRNA) [37-nt ssRNA], for which the binding result is “binds”.
